In the supplement of paper PMC10567573:

B1: HESX1 (parent)
chain: QKKDCVPLMKPHRPWADTCSSSGK

Variants of: B1
Test: protein stability index of a GFP-peptide fusion (GPS, HEK-293T) (PSI 1-6); higher = more stable
Details: c terminus: a fixed tail appended
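Note: lentivirally expressed fusions sorted by FACS into six bins by GFP to DsRed ratio, PSI derived from sequencing read proportions per bin multiplied by bin number.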

Protein stability index: each site, then its substitutions
C5: N 3.06 | P 3.17 | V 3.78 | T 3.2 | Y 3.38 | Q 2.49 | R 4.16 | S 3.4 | M 3.19 | W 3.34
R13: L 3.4 | F 3.75 | G 4.21 | M 3.06 | H 3.6 | K 3.5 | I 3.66 | W 3.4 | P 3.25 | D 4.11 | V 3.11 | N 4.15 | C 3.26 | T 3.33 | E 4.97 | Q 4.18 | Y 3.64
A16: V 2.46 | G 3.57 | H 3.98 | I 3.34 | K 3.96 | Y 3.49 | Q 4 | E 3.9 | C 3.72 | W 3.39 | R 3.45 | M 4.02 | S 3.72 | D 4.66 | F 3.44 | T 3.76 | P 3.96 | L 3.75 | N 4.2
L8: F 3.14 | Y 3.78 | V 3.28 | D 3.93 | S 3.86 | A 3.29 | I 2.82 | G 3.18 | T 2.82 | H 2.31 | C 2.7 | R 2.59 | M 3 | W 3.47 | K 3.73 | Q 4.1 | N 3.19 | P 3.49 | E 3.58
P14: L 3.06 | W 2.96 | N 2.72 | A 2.52 | K 2.81 | F 3.1 | M 2.84 | Q 3.88 | H 3.95 | I 3.26 | Y 2.98 | D 3.21 | E 4.12 | C 2.36 | V 2.23 | S 3.1 | G 3.96
C19: P 4.37 | L 3.13 | R 4.08 | E 4.32 | T 3.82 | N 4.83 | Y 3.25 | W 2.47 | F 2.66 | S 4.36 | A 4.07 | K 4.47 | H 3.77 | Q 4.03 | M 4.19 | V 2.17 | D 3.9 | I 2.45
K10: M 2.92 | D 4.83 | C 3.88 | Q 4.19 | I 3.7 | T 3.35 | F 3.21 | A 3.18 | Y 3.45 | N 4.25 | G 3.47 | W 2.52 | V 3.94 | R 3.48 | S 3.74 | L 3.58 | H 3.79
K24: D 3.22 | E 2.28 | A 3.7 | C 3.33
P7: C 2.74 | D 3.93 | M 3.17 | Y 2.78 | L 2.68 | R 2.46 | H 2.92 | T 2.7 | W 1.76 | F 2.07 | A 2.79 | Q 3.34 | N 3.07 | S 3.38 | K 2.8 | I 2.44 | V 2.56
W15: A 4.62 | S 4.8 | D 4.81 | N 4.79 | G 4.96 | H 4.64 | M 4.57 | T 5.26 | Q 4.79 | F 3.47 | Y 4.39 | I 4.26 | C 4.02 | E 5.37 | K 4.92 | L 4.66 | P 4.35
M9: T 3.77 | S 2.93 | R 3.13 | D 4.08 | L 3.41 | A 3.69 | C 3.76 | H 3.89 | N 3.58 | W 3 | F 2.85 | I 3.23 | E 4.04 | P 3.51 | G 4.27 | K 3.08 | Y 3.2
S22: M 3.43 | C 2.94 | K 3.69 | T 3.08 | E 3.13 | D 2.61 | A 2.95 | V 2.78 | P 3.68 | W 2.12 | Y 3.29 | N 2.89 | R 3.3 | I 3.13 | F 2.74 | H 3.96 | G 2.23
G23: S 3.32 | I 2.76 | R 3.5 | K 4.08 | C 2.45 | N 3.13 | M 3.08 | V 2.33 | D 2.46 | A 3.69 | F 1.61 | W 1.6 | Y 3.15 | H 2.62 | P 3.81 | L 3.46
V6: Q 2.98 | C 3.1 | G 3.46 | M 3.05 | A 4.1 | S 3.4 | I 3.03 | R 2.88 | T 3.92 | W 3.08 | L 2.92 | P 3.31 | K 2.57 | H 3.17 | E 4.38 | D 3.11 | F 3.28 | Y 3.01 | N 3.98
D17: W 2.78 | P 3.6 | S 3.74 | Q 3.89 | T 3.06 | H 3.71 | K 3.91 | E 3.53 | G 3.45 | R 3.46 | A 3.48 | N 3.22 | I 2.57 | F 3.07 | Y 3.17 | V 2.91 | M 3.36 | C 2.81
P11: F 3.03 | N 3.48 | Y 2.55 | T 4.68 | L 2.85 | I 3.42 | D 3.96 | Q 2.74 | R 3.46 | E 3.1 | W 3.16 | S 3.64 | H 3.51 | G 3.87 | K 3.42 | A 3.29 | M 3.83
T18: Y 2.25 | P 4.02 | M 2.44 | S 3.28 | H 2.13 | N 3.75 | A 3.41 | E 4.29 | K 4.01 | G 3.69 | D 3.96 | F 2.35 | C 3.15 | W 2.94 | V 1.9 | L 2.24 | Q 3.36 | I 1.57 | R 2.69
S20: T 2.96 | L 2.61 | N 3.33 | Y 2.31 | E 3.47 | W 2.74 | D 3.32 | A 3.71 | Q 3.05 | V 3.84 | R 3 | K 3.83 | M 3.18 | F 2.3 | P 3.79 | G 2.38 | I 2.98 | H 3.24 | C 3.03
H12: R 4.82 | G 3.98 | T 3.08 | P 4.01 | N 3.77 | W 2.29 | M 3.18 | L 3.91 | A 4 | C 3.42 | S 4.05 | E 4.44 | K 3.73 | D 4.49 | I 3.07 | Y 3.29 | F 3.25 | Q 3.94
S21: E 3.86 | V 3.15 | T 3.38 | M 2.58 | Y 2.32 | C 2.92 | D 3.24 | L 3.18 | Q 3.75 | K 3.68 | P 3.58 | G 3.92 | I 2.69 | H 2.88 | F 2.44 | R 2.56 | W 2.79 | A 3.61 | N 3.4
